Assay results: patent publication US20100323957A1, “NOVEL ASSAY FOR INHIBITORS OF EGFR” (THE REGENTS OF THE UNIVERSITY OF CALIFORNIA THE OFFICE OF …, priority 2007, published 2010)

How the values were obtained:
full-length EGFR = target: T1, full-length EGFR (Homo sapiens, UniProt P00533); assay: Cell-based assay of EGFR autophosphorylation, Cos-7 cells co-transfected with EGFR and MIG6; details: co-expression with EGFR, EGF 50 ng/ml, western blot
T1 construct: Cos-7 cells co-transfected with constructs containing full-length EGFR and MIG6; expressed in transfected cells; host or cells: Cos-7
From the text: The wild-type and mutant forms of the EGFR kinase domain were expressed and purified using methods known in the art and described in Zhang et al., (2006). The 60-residue MIG6 peptide was expressed in bacteria as a glutathione S-transferase (GST)-fusion protein, purified and treated with the TEV protease to remove the GST-moiety. The wild-type and Y358A mutant MIG6(segments 1-2) peptides were fused to a Trp DLE leader peptide and expressed as inclusion bodies and purified as described. All other MIG6 peptides were produced using solid phase synthesis. […] The binding affinities between the kinase domain and fluorescein-labeled MIG6 peptides were measured by monitoring the change of fluorescence anisotropy during the titration and fitting the data to a single-site binding model. Kinase assays in solution and on vesicle were performed using methods known in the art and described herein. Cell-based inhibition assays were performed using Cos-7 cells co-transfected with constructs containing full-length EGFR and MIG6.
For cell-based assays, Cos-7 cells were co-transfected using Fugene 6 (Roche) with the DNA encoding the N-terminal Flag-tagged EGFR in pcDNA3.1 constructs and the wild-type or mutants of the MIG6 genes with a C-terminal Myc tag (also in pcDNA3.1). Cells were cultured for 36 h after transfection and serum-starved for 12 h. Cells were treated with EGF (50 ng ml^−1) for ˜5 min at 37° C., lysed and subjected to western blot analyses. The levels of total EGFR, EGFR autophosphorylation and MIG6 were probed using the anti-EGFR antibody SC03 (Santa Cruz), anti-phosphotyrosine antibody 4G10 (Upstate) and an anti-Myc antibody (Cell Signalling), respectively.

[1] = target: T2, EGFR kinase domain L834R mutant (Homo sapiens, UniProt P00533, L858R); assay: Kinase assay in solution, L834R mutant kinase domain; assay type: biochemical; details: for IC50: L834R at 200 nM, MnCl2 10 mM, read-out: IC50 for inhibition of L834R mutant kinase domain
T2 construct: DNA encoding residues 672-998 of human EGFR was cloned into pFAST BAC HT; made in house; host or cells: Sf9 insect cells (baculovirus)
Description: To test the role of segment 2, we produced a longer peptide (residues 336-412, MIG6(segments 1-2)), and analyzed its effect on a variant of the EGFR kinase domain that contains a mutation (L834R) that renders it constitutively active in the absence of concentration on vesicles. MIG6(segments 1-2) inhibits this mutant kinase domain with an IC50 value of ˜200 nM (FIG. 25a). MIG6(segments 1-2) bearing a mutation within segment 1 (Y358A) inhibited L834R much less efficiently (IC50˜5 μM).
(§1) Kinase assays were performed using methods known in the art and described herein. The substrate peptide was kept at 1 mM in all the experiments. The reported rates are the initial velocities normalized by the kinase concentrations. The wild-type kinase concentrations in the vesicle-based and solution-based assays were […] respectively.
(§2) A continuous enzyme-coupled kinase assay was performed to measure the kinase activity of the proteins as described in Barker et al., ((1995) Biochemistry, Vol. 34(54): 14843-51), with modifications, as described herein. The ATP concentration was kept to 0.5 mM.
(§3) The buffer used contained 10 mM MgCl2, 20 mM Tris, and pH 7.5. […] The substrate peptide was derived from the region spanning Y1173 in EGFR ([…]). All proteins used in this assay contained the N-terminal (His)6 tag unless otherwise noted.

[2] = target: T3, wild-type EGFR kinase domain in solution (Homo sapiens, UniProt P00533); assay: Kinase assay in solution, wild-type kinase domain (basal activity); assay type: biochemical; details: result in words
T3 construct: DNA encoding residues 672-998 of human EGFR was cloned into pFAST BAC HT; made in house; host or cells: Sf9 insect cells (baculovirus)
Description: as §1, §2, §3
The protein concentrations of the EGFR kinase domain used in the assay ranged from 3.5 to 14 μM. The total concentration of the DOGS-NTA-Ni in the bulk solution was kept to 12.5 μM in all assays with DOG-NTA-Ni-containing vesicles. For assays of the kinase domain attached to vesicles, the protein and vesicles were preincubated at 4° C. for ˜5 min.

B1: MIG6(M346A): full-length MIG6 with M346A mutation in segment 1, co-expressed in cells (protein)
chain: MSIAGVAAQEIRVPLKTGFLHNGRAMGNMRKTYWSSRSEFKNNFLNIDPITMAYSLNSSAQERLIPLGHASKSAPMNGHCFAENGPSQKSSLPPLLIPPSENLGPHEEDQVVCGFKKLTVNGVCASTPPLTPIKNSPSLFPCAPLCERGSRPLPPLPISEALSLDDTDCEVEFLTSSDTDFLLEDSTLSDFKYDVPGRRSFRGCGQINYAYFDTPAVSAADLSYVSDQNGGVPDPNPPPPQTHRRLRRSHSGPAGSFNKPAIRISNCCIHRASPNSDEDKPEVPPRVPIPPRPVKPDYRRWSAEVTSSTYSDEDRPPKVPPREPLSPSNSRTPSPKSLPSYLNGVAPPTQSFAPDPKYVSSKALQRQNSEGSASKVPCILPIIENGKKVSSTHYYLLPERPPYLDKYEKFFREAEETNGGAQIQPLPADCGISSATEKPDSKTKMDLGGHVKRKHLSYVVSP
modifications: left off: small tags and cut ends
notes: full-length MIG6 with M346A mutation in segment 1, co-expressed in cells
EGF-induced autophosphorylation of EGFR (full-length EGFR): abolishes this effect

B2: MIG6(F352A): full-length MIG6 with F352A mutation in segment 1, co-expressed in cells (protein)
chain: MSIAGVAAQEIRVPLKTGFLHNGRAMGNMRKTYWSSRSEFKNNFLNIDPITMAYSLNSSAQERLIPLGHASKSAPMNGHCFAENGPSQKSSLPPLLIPPSENLGPHEEDQVVCGFKKLTVNGVCASTPPLTPIKNSPSLFPCAPLCERGSRPLPPLPISEALSLDDTDCEVEFLTSSDTDFLLEDSTLSDFKYDVPGRRSFRGCGQINYAYFDTPAVSAADLSYVSDQNGGVPDPNPPPPQTHRRLRRSHSGPAGSFNKPAIRISNCCIHRASPNSDEDKPEVPPRVPIPPRPVKPDYRRWSAEVTSSTYSDEDRPPKVPPREPLSPSNSRTPSPKSLPSYLNGVMPPTQSAAPDPKYVSSKALQRQNSEGSASKVPCILPIIENGKKVSSTHYYLLPERPPYLDKYEKFFREAEETNGGAQIQPLPADCGISSATEKPDSKTKMDLGGHVKRKHLSYVVSP
modifications: left off: small tags and cut ends
notes: full-length MIG6 with F352A mutation in segment 1, co-expressed in cells
EGF-induced autophosphorylation of EGFR (full-length EGFR): abolishes this effect

B3: MIG6(Y358A): full-length MIG6 with Y358A mutation in segment 1, co-expressed in cells (protein)
chain: MSIAGVAAQEIRVPLKTGFLHNGRAMGNMRKTYWSSRSEFKNNFLNIDPITMAYSLNSSAQERLIPLGHASKSAPMNGHCFAENGPSQKSSLPPLLIPPSENLGPHEEDQVVCGFKKLTVNGVCASTPPLTPIKNSPSLFPCAPLCERGSRPLPPLPISEALSLDDTDCEVEFLTSSDTDFLLEDSTLSDFKYDVPGRRSFRGCGQINYAYFDTPAVSAADLSYVSDQNGGVPDPNPPPPQTHRRLRRSHSGPAGSFNKPAIRISNCCIHRASPNSDEDKPEVPPRVPIPPRPVKPDYRRWSAEVTSSTYSDEDRPPKVPPREPLSPSNSRTPSPKSLPSYLNGVMPPTQSFAPDPKAVSSKALQRQNSEGSASKVPCILPIIENGKKVSSTHYYLLPERPPYLDKYEKFFREAEETNGGAQIQPLPADCGISSATEKPDSKTKMDLGGHVKRKHLSYVVSP
modifications: left off: small tags and cut ends
notes: full-length MIG6 with Y358A mutation in segment 1, co-expressed in cells
EGF-induced autophosphorylation of EGFR (full-length EGFR): abolishes this effect

B4: MIG6(segments 1-2): longer MIG6 peptide, residues 336-412, expressed as Trp DLE fusion; M346 mutated to leucine (protein)
peptide: KSLPSYLNGVLPPTQSFAPDPKYVSSKALQRQNSEGSASKVPCILPIIENGKKVSSTHYYLLPERPPYLDKYEKFFR
IC50 [1]: ~200 nM
inhibition of L834R mutant kinase domain ([1]; result in words): much more strongly
inhibition of basal activity of wild-type kinase domain in solution [2]: much less potent

B5: MIG6(segments 1-2) Y358A: MIG6 residues 336-412 bearing a mutation within segment 1 (Y358A) (protein)
peptide: KSLPSYLNGVLPPTQSFAPDPKAVSSKALQRQNSEGSASKVPCILPIIENGKKVSSTHYYLLPERPPYLDKYEKFFR
IC50 [1]: ~5000 nM
inhibition of basal activity of wild-type kinase domain in solution [2]: does not show any inhibition
